How the values were obtained:
Assay in all cases: SPR, calculated KD (Qdat software)
Aβ42 fibrils = Aβ42 fibrils (UniProt P05067)
[1] = target: Aβ42 oligomers (ADDLs/globulomers) (UniProt P05067)
[2] = target: C-terminal biotinylated Aβ42 ADDLs/globulomers (UniProt P05067)
[3] = target: C-terminal biotinylated Aβ42 monomers (UniProt P05067)
[4] = target: N-terminal biotinylated Aβ42 monomers (UniProt P05067)
Chain of N-terminal biotinylated Aβ42 monomers (P05067 672-713 limits assumed): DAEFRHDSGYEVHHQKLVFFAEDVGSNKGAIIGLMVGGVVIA

Chain of Aβ42 fibrils (P05067 672-713 limits assumed): as above
Chain of C-terminal biotinylated Aβ42 ADDLs/globulomers (P05067 672-713 limits assumed): as above
Chain of C-terminal biotinylated Aβ42 monomers (P05067 672-713 limits assumed): as above
Chain of Aβ42 oligomers (ADDLs/globulomers) (P05067 672-713 limits assumed): as above

Substance: 6E10 (mouse mAb to Aβ amino acids 1-16; BioLegend, San Diego, CA) (antibody)
- Kd (Aβ42 fibrils): 56 nM
- Kd [1]: 69 nM
- Kd [2]: 50 nM
- Kd [3]: 47 nM
- Kd [4]: 158 nM

Source: patent publication US20220227846A1
